Laboratory results from article PMC2841503 (Molecular cell, 2010).

Target: yeast ubiquitin (yeast, UniProt P0CG63 1-76)
Assay: NMR titration

Chain of yeast ubiquitin (P0CG63 1-76): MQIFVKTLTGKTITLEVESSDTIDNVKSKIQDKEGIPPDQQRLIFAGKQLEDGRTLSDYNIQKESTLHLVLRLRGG

- binding result: binds
B1: S. cerevisiae Rev1 UBM2 (residues 804-857), GB1-fusion protein (domain or fragment, UniProt P12689 804-857, looked up)
chain: LEVNDLPSTMEEQFMNELPTQIRAEVRHDLRIQKKIQQTKLGNLQEKIKRREES
